Test results taken from the nanobody polyreactivity screen of Harvey et al. (2022).

Test: yeast display, Sf9 membrane polyspecificity reagent, FACS + sequencing; frameworks hold sequencing errors
Procedure, shortened: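 Nanobodies came from a synthetic yeast display library in Saccharomyces cerevisiae BJ5465, induced with galactose for 36–48 hours and stained for 1 hour at 4 °C with 10% biotinylated, detergent-solubilized Sf9 membrane reagent. Cells were enriched on streptavidin microbeads and then FACS-sorted, with low and high (top ~1%) gates set on anti-HA fluorescence for expression and streptavidin fluorescence for reagent binding. Each polyreactivity label reflects the gate a clone came from. Genes were amplified by colony PCR, sequenced by MiSeq 2 × 250 and filtered by CDR length.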

Sequence: QVQLVESGGGLVQAGGSLRLSCAASGSIFRVYAMGWYRQAPGKERELVAAISTRGGSTYYADSVKGRFTISRDNAKNTVYLQMNSLNPEDTAVYYCAKRWPQYPDYKPMYYWGQGTQVTVSS
- polyreactivity (PSR sort gate): high polyreactivity

Sequence: QVQLVESGGGLVQAGGSLRLSCAASGSIFRVYAMGWYRQAPGKERELVAGISSRGGTSTYYADSVKGRFTISRDNAKNTVYLQMNSLKPEDTAVYYCAVQVRYPGYDYWGQGTQVTVSS
- polyreactivity (PSR sort gate): low polyreactivity

Sequence: QVQLVESGGGLVQAGGSLRLSCAASGSIFRVYVMGWYRQAPGKERELVARIRYRSGRTNYADSVKGRFTISRDNAKNTVYLQMNSLKPEDTAVYYCSADVYWPTAGDYTQKRDYWGLGTQVTVSS
- polyreactivity (PSR sort gate): high polyreactivity

Sequence: QVQLVESGGGLVQAGGSLRLSCAASGSIFRWNAMGSYRQAPGKERELVAVINSSGGSTYYADSVKGRFTISRDNAKNTVYLQMNSLKPEDTAVYYCAAVIYKIIYGQYAYDYWGQGTQVTVSS
- polyreactivity (PSR sort gate): low polyreactivity

Sequence: QVQLVESGGGLVQAGGSLRLSCAASGSIFRWNAMGWYRQAPGKERELVAAIDSGGSTYADSVKGRFTISRDNAKNTVYLQMNSLKPEDTAVYYCAAAIPDEWPYDYWGQGTQVTVSS
- polyreactivity (PSR sort gate): low polyreactivity

Sequence: QVQLVESGGGLVQAGGSLRLSCAASGSIFRWYAMGWYRQAPGKERELVAAISRRGGRTYYADSVKGRFTISRDNAKNTVYLQMNSLKPEDSAVYYCNADFGYRLPGNYWGQGTQVTVSS
- polyreactivity (PSR sort gate): low polyreactivity

Sequence: QVQLVESGGGLVQAGGSLRLSCAASGSIFRWYAMGWYRQAPGKERELVAAISTSGGNTYYADSVKGRFTISRDNAKNTVYLQMNSLKPEDTAVYYCNALWYRSLSYRYDYWGQGTQVTVSS
- polyreactivity (PSR sort gate): high polyreactivity

Sequence: QVQLVESGGGLVQAGGSLRLSCAASGSIFRWYAMGWYRQAPGKERELVAAISYSGGSTYYADSVKGRFTISRDNAKNTVYLQMNSLKPEDTAVYYCARLGWKPITAARDYWGQVTQVTVSS
- polyreactivity (PSR sort gate): high polyreactivity

Sequence: QVQLVESGGGLVQAGGSLRLSCAASGSIFRWYAMGWYRQAPGKERELVAAITSGGSTYYADSVKGRFTISRDNAKNTVYLQMNSLKPEDTAVYYCNAAKLASHTYDYWGLGTQVTVSS
- polyreactivity (PSR sort gate): low polyreactivity

Sequence: QVQLVESGGGLVQAGGSLRLSCAASGSIFRYNAMGWYRQAPGKERELVAAISASGGRTHDADSVKGRFTISRDNAKNTVYLQMNSLKPEDTAVYYCAAATYRGTSLYGYWGQGTQVTVSS
- polyreactivity (PSR sort gate): high polyreactivity

Sequence: QVQLVESGGGLVQAGGSLRLSCAASGSIFRYNAMGWYRQAPGKERELVASISWSGGSTYYADSVKGRFTISRDNAKNTVYLQMNSLKPEDNAFYYCNVYGKYFRSRYDSWGQGTQVNVSS
- polyreactivity (PSR sort gate): high polyreactivity

Sequence: QVQLVESGGGLVQAGGSLRLSCAASGSIFRYNAMGWYRQEPGKERELVASINGGGGTYYPDSVKGRFTISRDNAKNTVYLQMNSLKPEDTAVLYCNTVVNSFSYASRFNFYYWGQGSQVTVSS
- polyreactivity (PSR sort gate): high polyreactivity

Sequence: QVQLVESGGGLVQAGGSLRLSCAASGSIFRYYAMGWYRQAPGKERELVAGITGSTGRTYYADSVKGRFTISRDKAKNTVYLELNSLKPVDTEVYYCSARSRYYEYDYWGQGTQVTVTS
- polyreactivity (PSR sort gate): low polyreactivity

Sequence: QVQLVESGGGLVQAGGSLRLSCAASGSIFRYYAMGWYRQAPGKERELVAVITRGGSTYYADSVKGRFTISRDNAKNTVYLQMNSLKPEDTAVYYCAADYWPACMDRGYWGQATQVTVSS
- polyreactivity (PSR sort gate): low polyreactivity

Sequence: QVQLVESGGGLVQAGGSLRLSCAASGSIFSAYAMGWYRQAPGKEREFVAGITSSGGRTYYADSVKGRFTISRDNAKNTVYLQMNSLKPEDTAVYYCAARFYKKDRRAYGYWGQGTQVTVSS
- polyreactivity (PSR sort gate): high polyreactivity

Sequence: QVQLVESGGGLVQAGGSLRLSCAASGSIFSAYAMGWYRQAPRKEREFVAAITRRGGNTYYADSVKGRFTISRDNAKNTVYLQMNSLKPEDTAVYYCAAGFYYVYVWLGEYWGQGTQVTVSS
- polyreactivity (PSR sort gate): low polyreactivity

Sequence: QVQLVESGGGLVQAGGSLRLSCAASGSIFSDNAMGWYRQAPGKERELVAGISSGGGTNYADSVKGRFTISRDNAKNTVYLQMNSLKPEDTGVYDCNADQRDGLELDYWGQGTQVTVSS
- polyreactivity (PSR sort gate): low polyreactivity

Sequence: QVQLVESGGGLVQAGGSLRLSCAASGSIFSDYAMGWYRQAPGKEREFVAAIDSSGSTYYADSVKGRFTISRDNAKNTVYLQMNSLKPEDTAVYYCAADHLLYSVYIYYYWGQGTQVTVSS
- polyreactivity (PSR sort gate): low polyreactivity

Sequence: QVQLVESGGGLVQAGGSLRLSCAASGSIFSDYAMGWYRQAPGKERELVAAISGTGGGTYYADSVKGRFTISRDNAKNTVYLQMNSLKPEDTAVYYCAADYVFAWWGDYYWGQGTQVTVSS
- polyreactivity (PSR sort gate): high polyreactivity

Sequence: QVQLVESGGGLVQAGGSLRLSCAASGSIFSDYAMGWYRQAPGKERELVAGISSGGGTTYADSVKGRFTISRDNAKNTVYLQMNSLIPEDTAVYYCNKQDQPVGRSGYPYGYDYWGQGTQVTVSS
- polyreactivity (PSR sort gate): low polyreactivity

Sequence: QVQLVESGGGLVQAGGSLRLSCAASGSIFSFNAKGWYRQAPGKERELVAAITTSGGSTYYADSVKGRFTISRDNAKNTVYLQMNSLKPEDTAVYYCAAVRPDNSLYEPMDYWGQGTQVTVSS
- polyreactivity (PSR sort gate): low polyreactivity

Sequence: QVQLVESGGGLVQAGGSLRLSCAASGSIFSFNAMGWYRQAPGKERELVAAISYSGGSTYADSVKGRFTISRDNAKNTVYLHMNSLKPEDTAVYYCAADGLDYSSGGDGYWGQGTQVTVSS
- polyreactivity (PSR sort gate): low polyreactivity

Sequence: QVQLVESGGGLVQAGGSLRLSCAASGSIFSFYAMGGYRQPPGKEREFVATITYGSGSTHYADSVKGRFTISRDNAKITVYLQLNSLKPEDTAVYYCAAETVRYEWGESPAALFDYWGQGTQVTVSS
- polyreactivity (PSR sort gate): low polyreactivity

Sequence: QVQLVESGGGLVQAGGSLRLSCAASGSIFSFYAMGWYRQAPGKERELVATISSGDNTNYADSVKGRFTISRDNAKNTVYLQMNSLKPEDTAVYYCAADAWGVDREYDYWGQGTQVTVSS
- polyreactivity (PSR sort gate): low polyreactivity

Sequence: QVQLVESGGGLVQAGGSLRLSCAASGSIFSFYAMGWYRQAPGKRELVAAISGNGGSTFYADSVKGRFTISRDNAKNTVYLQMNSLKPEDTAVYYCAAYSYRYKYYYWGQGTQVTVSS
- polyreactivity (PSR sort gate): high polyreactivity

Sequence: QVQLVESGGGLVQAGGSLRLSCAASGSIFSFYMGWYRQAPGKERELVAAISSRGGSTYYADSVKGRFTISRDNAKNTVYLQMISLKPEDTAVYYCAAAGGGKVSYRDYDYWGQGTQVTVSS
- polyreactivity (PSR sort gate): high polyreactivity

Sequence: QVQLVESGGGLVQAGGSLRLSCAASGSIFSGKAMGWYRQAPGKERELVASINRSGGSTYSADSVKGRFTISRDNAKYTVYLQMNSLKPEDTAVYSCAARRVWLAGYDSWGQGTQVTVSS
- polyreactivity (PSR sort gate): low polyreactivity

Sequence: QVQLVESGGGLVQAGGSLRLSCAASGSIFSGYAMGWYRQAPGKEREFVAAISSSGGRTYYADSVKGRFTISRDNAKNTVYLQMNSLKPEDTAVYYCNAVSSYGYDYWGQGTQVTVSS
- polyreactivity (PSR sort gate): high polyreactivity

Sequence: QVQLVESGGGLVQAGGSLRLSCAASGSIFSGYAMGWYRQAPGKERELVAAITGGGSTNYADSVKGRFTISRDNAKNTVYLQMTSLKPEDTAVYYCAAAPVSLPDYGYWGQGTQVTVSS
- polyreactivity (PSR sort gate): low polyreactivity

Sequence: QVQLVESGGGLVQAGGSLRLSCAASGSIFSGYTMGWYRQAPGKERELVAAITQRGTRTYYADSVKGRFTISRDNAKNTVYLQMNSLKPEDTAVYYCAADSVVVGSPGNDYWGQGTQVTVSS
- polyreactivity (PSR sort gate): high polyreactivity

Sequence: QVQLVESGGGLVQAGGSLRLSCAASGSIFSHNAMGGYRQAPGKERELVASITGSGGSTYYAASVKGRFTISRDNAKNTVYLQMNSLKPEDTAVYYCAATYYPDVRGMDYWGQGTQVTVSS
- polyreactivity (PSR sort gate): low polyreactivity

Sequence: QVQLVESGGGLVQAGGSLRLSCAASGSIFSHNAMGWYRQAPGKERELVAAISRSGGSTYYADSVKGRFTISRDNAKNTVYLQMKSLKPEDTAVYYCAVRAYKVSRYYYWGQGSQVTVSS
- polyreactivity (PSR sort gate): low polyreactivity

Sequence: QVQLVESGGGLVQAGGSLRLSCAASGSIFSINAMGWYRQAPGKERELVAAISWSGGSTYYADSVKGRFTISRDNAKNTVYLQMNSLKPEDTAVYYCAASYWDTEPGYREYDYWGQGTQVTVSS
- polyreactivity (PSR sort gate): low polyreactivity

Sequence: QVQLVESGGGLVQAGGSLRLSCAASGSIFSINAMVSYRQAPGKERELVAAISASGGSTYYADSVKGRFTISRDFAKITVYLHMNSLKPEDTAVFYCAAEGSPTGYDYWGQGTQVTVSS
- polyreactivity (PSR sort gate): low polyreactivity

Sequence: QVQLVESGGGLVQAGGSLRLSCAASGSIFSINTMGWYRQAPGKERELVAAITRSGSGTYYADSVKGRFTISRDNAKNTVYLQMNSLKPEDTAVYYCNADDWVGRSLRYDYWGQGTQVTVSS
- polyreactivity (PSR sort gate): low polyreactivity

Sequence: QVQLVESGGGLVQAGGSLRLSCAASGSIFSKNAMGWYRQAPGKERELVAAITWSGGRTYYADSVKGRFTISRDNAKNTVFLQMNSLKPEDTAVYYCAAVSRVRYYLQTYDSWGQGTQVTVSS
- polyreactivity (PSR sort gate): high polyreactivity

Sequence: QVQLVESGGGLVQAGGSLRLSCAASGSIFSLNAMGWYRPAPGKERELVAVINRSGTRTYYADSVKGRFTISRDNAKNTVYLQMNSLKPEDTAVYYCNAQPSSGSDAQNEYWGQGTQVTVSS
- polyreactivity (PSR sort gate): high polyreactivity

Sequence: QVQLVESGGGLVQAGGSLRLSCAASGSIFSLNAMGWYRQAPGKEREFVAASGGGSTYYADSVKGRFTISRDNAKNTVYLQMNSLKPEDCAVYYCAARVLTDELDYWGQGTQVTVSS
- polyreactivity (PSR sort gate): low polyreactivity

Sequence: QVQLVESGGGLVQAGGSLRLSCAASGSIFSLYAMGWYRQAPGKERELVAAISSSGTSTYYADSVKGRFTISRDNAKNTVYLQMYSLKTEDTAVYYCNAYRRRATYNGDYWGQGTQVTVSS
- polyreactivity (PSR sort gate): high polyreactivity

Sequence: QVQLVESGGGLVQAGGSLRLSCAASGSIFSLYDMGWYRQAPGKERELVASITWSGGSTDYADSVKGRFTISRDNAKNTVYLQMNSLKPEDTAVYYCAAYSYTSIFDYWGQGTQVTVSS
- polyreactivity (PSR sort gate): low polyreactivity

Sequence: QVQLVESGGGLVQAGGSLRLSCAASGSIFSLYVMGWYRQAPGKERELGAAITSGGRTNYADSVKGRFTISRDNAKNTVYLLMNSLKPEDTAVYDCAARFPSRYGRYGYWGQGTQVTVSS
- polyreactivity (PSR sort gate): high polyreactivity

Sequence: QVQLVESGGGLVQAGGSLRLSCAASGSIFSPNAMGWNRQAPGKERELVAAISRRGGRTYYADSVKGRFTISRDNAKNTVYFQMNSLKPEDTAVYYCNAVWYSDTYTNPQYDYWGQGTQVTVSS
- polyreactivity (PSR sort gate): high polyreactivity

Sequence: QVQLVESGGGLVQAGGSLRLSCAASGSIFSPYAMGWYRQAPGKARELVAVITRSGGRTYYADSVKGRFTISRDNAKNTVYLQMNSLKPEDTAVYYCAATPKSWSSSTRDYWGQGTQVTVSS
- polyreactivity (PSR sort gate): high polyreactivity
